Test results: patent US20240150441A1

Tests used:
[1] = biological target: spike (S) protein of the BA.4/5 SARS-CoV-2 pseudovirus (SARS-CoV-2, Omicron subvariant BA.4/5) (UniProt P0DTC2); test: cell-based or functional assay
[2] = biological target: spike (S) protein of the authentic parental Omicron variant (B.1.1.529) of SARS-CoV-2 (SARS-CoV-2, B.1.1.529 (Omicron) variant) (UniProt P0DTC2); test: cell-based or functional assay

plant-made cilgavimab (pCilgavimab) (antibody)
neutralization of BA.4/5 pseudovirus, luciferase reporter assay, IC50 [1]: 0.102 µg/mL
neutralization of authentic B.1.1.529 (Omicron) virus, foci-forming assay, IC50 [2]: 2.23 µg/mL
